Measured values: paper PMC10397247
One block for each binder: values may come before it.

Tests used:
Assay in all cases: two-hybrid library CCNG1;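 also: natural log of median RNA to DNA barcode read ratio; higher means stronger binding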
4H349-bA = target: T1, 4H349-bA
T1 chain: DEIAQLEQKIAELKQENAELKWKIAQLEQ

4H796-bA = target: T2, 4H796-bA
T2 chain: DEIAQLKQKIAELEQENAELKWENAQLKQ

4H56-bA = target: T3, 4H56-bA
T3 chain: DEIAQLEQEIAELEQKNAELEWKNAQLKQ

4H949-bA = target: T4, 4H949-bA
T4 chain: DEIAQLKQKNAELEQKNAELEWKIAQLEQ

4H730-bA = target: T5, 4H730-bA
T5 chain: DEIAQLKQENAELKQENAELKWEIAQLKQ

4H932-bA = target: T6, 4H932-bA
T6 chain: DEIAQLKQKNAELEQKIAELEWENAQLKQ

4H3381-bA = target: T7, 4H3381-bA
T7 chain: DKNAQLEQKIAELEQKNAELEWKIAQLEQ

P8A = target: T8, P8A
T8 chain: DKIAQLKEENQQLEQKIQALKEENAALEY

4H3364-bA = target: T9, 4H3364-bA
T9 chain: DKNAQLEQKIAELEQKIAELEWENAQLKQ

4H348-bA = target: T10, 4H348-bA
T10 chain: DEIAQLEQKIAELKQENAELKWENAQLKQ

4H2839-bA = target: T11, 4H2839-bA
T11 chain: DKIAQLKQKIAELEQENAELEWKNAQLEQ

4H492-bA = target: T12, 4H492-bA
T12 chain: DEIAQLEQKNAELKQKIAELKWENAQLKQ

4H477-bA = target: T13, 4H477-bA
T13 chain: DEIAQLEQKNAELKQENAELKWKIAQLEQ

4H2717-bA = target: T14, 4H2717-bA
T14 chain: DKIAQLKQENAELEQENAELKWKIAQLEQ

4H40-bA = target: T15, 4H40-bA
T15 chain: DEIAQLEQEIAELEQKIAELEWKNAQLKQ

4H3057-bA = target: T16, 4H3057-bA
T16 chain: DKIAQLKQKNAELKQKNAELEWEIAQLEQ

4H3277-bA = target: T17, 4H3277-bA
T17 chain: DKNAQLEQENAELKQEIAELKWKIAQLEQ

4H741-bA = target: T18, 4H741-bA
T18 chain: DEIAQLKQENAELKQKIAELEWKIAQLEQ

4H2915-bA = target: T19, 4H2915-bA
T19 chain: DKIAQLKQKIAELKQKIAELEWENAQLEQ

O6-bS = target: T20, O6-bS
T20 chain: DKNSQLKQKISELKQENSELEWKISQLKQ

O9-bS = target: T21, O9-bS
T21 chain: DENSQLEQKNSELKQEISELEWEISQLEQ

O7-bS = target: T22, O7-bS
T22 chain: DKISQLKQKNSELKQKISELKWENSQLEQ

O8-bS = target: T23, O8-bS
T23 chain: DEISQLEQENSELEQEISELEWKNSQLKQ

O5-bS = target: T24, O5-bS
T24 chain: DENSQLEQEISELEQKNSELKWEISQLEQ

4H2915-bH = target: T25, 4H2915-bH
T25 chain: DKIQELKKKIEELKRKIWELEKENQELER

4H492-bH = target: T26, 4H492-bH
T26 chain: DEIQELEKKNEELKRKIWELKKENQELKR

4H2839-bH = target: T27, 4H2839-bH
T27 chain: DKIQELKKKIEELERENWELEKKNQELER

4H3057-bH = target: T28, 4H3057-bH
T28 chain: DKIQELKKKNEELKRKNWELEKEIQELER

4H348-bH = target: T29, 4H348-bH
T29 chain: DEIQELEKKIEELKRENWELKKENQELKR

4H319-bH = target: T30, 4H319-bH
T30 chain: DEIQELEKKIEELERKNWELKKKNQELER

4H477-bH = target: T31, 4H477-bH
T31 chain: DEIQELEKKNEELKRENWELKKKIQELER

4H3277-bH = target: T32, 4H3277-bH
T32 chain: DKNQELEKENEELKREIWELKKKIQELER

4H40-bH = target: T33, 4H40-bH
T33 chain: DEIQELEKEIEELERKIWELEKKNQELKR

4H741-bH = target: T34, 4H741-bH
T34 chain: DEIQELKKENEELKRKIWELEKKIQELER

Binder: DKIAQLKQENAELEQENAELKWKIAQLEQ [4H2717-bA]
interaction score (4H348-bA): -1.06
interaction score (4H2839-bA): -0.857
interaction score (4H492-bA): -1.39
interaction score (4H477-bA): 0.776
interaction score (4H2717-bA): 1.02
interaction score (4H40-bA): -1.55
interaction score (4H3057-bA): 1.23
interaction score (4H3277-bA): -0.874
interaction score (4H741-bA): -1.48
interaction score (4H2915-bA): -0.721

Binder: DKIQELKKKIEELERENWELEKKNQELER [4H2839-bH]
interaction score (4H2915-bH): 0.242
interaction score (4H492-bH): -0.474
interaction score (4H2839-bH): 1.04
interaction score (4H3057-bH): 0.0652
interaction score (4H348-bH): 0.581
interaction score (4H319-bH): 1.44
interaction score (4H477-bH): -0.629
interaction score (4H3277-bH): -1.06
interaction score (4H40-bH): 0.0596
interaction score (4H741-bH): -0.868

The remaining lines, values ahead:

interaction score (4H349-bA): -1.53
interaction score (4H796-bA): 0.137
interaction score (4H56-bA): 0.349
interaction score (4H949-bA): -1.22
interaction score (4H730-bA): 0.124
interaction score (4H932-bA): -0.586
interaction score (4H3381-bA): -0.647
interaction score (P8A): -0.26
interaction score (4H3364-bA): 1.01
Binder: DKNAQLEQKIAELEQKIAELEWENAQLKQ [4H3364-bA]

interaction score (O6-bS): 2.08
interaction score (O9-bS): -0.729
interaction score (O7-bS): -1.98
interaction score (O8-bS): -1.34
interaction score (O5-bS): -1.98
Binder: DENSQLEQEISELEQKNSELKWEISQLEQ [O5-bS]
